Reference: patent publication US12295987B2, “Method of using a GIP/GLP1 co-agonist for diabetes” (Eli Lilly and Company, priority 2018, dated 2025)
Numbered stars: 1 amine (or outer) side, 2 acyl side, 3 side chain; on linkers, the order of the positions; unused ones are H or OH. Square brackets hold non-standard residues; d marks the D form. Side chains are listed from the residue outwards. Ends that are not written are not given here. * marks the point of attachment. C20 diacid = O=C(O)CCCCCCCCCCCCCCCCCCC(=O)*; γGlu = O=C(O)[C@H](CCC(=O)[*:2])N[*:1]; AEEA = NCCOCCOCC(=O)O; Aib = CC(C)(N)C(=O)O

Biological target: T1, human gastric inhibitory peptide receptor (hGIPR) (Homo sapiens, UniProt P48546)
T1 construct: expressed in transfected cells; host or cells: HEK293
T1 sequence (P48546 22-466): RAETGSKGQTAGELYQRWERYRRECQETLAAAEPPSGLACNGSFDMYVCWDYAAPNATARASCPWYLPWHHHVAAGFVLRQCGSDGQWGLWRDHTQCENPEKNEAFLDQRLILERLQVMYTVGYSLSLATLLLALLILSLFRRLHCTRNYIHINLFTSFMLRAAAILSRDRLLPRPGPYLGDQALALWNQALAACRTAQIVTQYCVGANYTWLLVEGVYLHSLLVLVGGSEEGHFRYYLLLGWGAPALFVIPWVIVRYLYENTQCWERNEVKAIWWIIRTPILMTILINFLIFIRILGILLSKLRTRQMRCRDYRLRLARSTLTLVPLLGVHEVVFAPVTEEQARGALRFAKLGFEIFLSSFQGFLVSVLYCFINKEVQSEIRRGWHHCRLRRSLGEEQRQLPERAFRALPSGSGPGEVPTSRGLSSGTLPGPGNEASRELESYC
Experiment: cAMP pharmacological functional assay in presence of 0.1% casein, hGIPR
Assay type: cell-based
Conditions: ratio of hGIPR to hGLP1R cAMP EC50 ratios

Substance | [hGIPR/hGLP1R] EC50 Ratio
Y-Aib-EGTFTSDYSI-αMeL-LDKK((2-[2-(2-Amino-ethoxy)-ethoxy]-acetyl)2-(γGlu)-CO—(CH2)18—CO2H)AQ-Aib-AFIEYLIEGGPSSGAPPPS-NH2 (YXEGTFTSDYSIXLDKKAQXAFIEYLIEGGPSSGAPPPS; Aib, αMeL; lipidated K; C-terminal amide; (2)..(2) Xaa at position 2 is Aib; (13)..(13) Xaa at position 13 is alpha-methyl-Leu; MOD_RES (17)..(17) Lys at position 17 is chemically modified by conjugation of the epsilon-amino group of the Lys side chain with (2-[2-(2-amino-ethoxy)-ethoxy]-acetyl)2-(gamma-Glu)-CO-(CH2)18- CO2H; (20)..(20) Xaa at position 20 is Aib; MOD_RES (39)..(39) Ser at position 39 is amidated) [Peptide 20] | 4.87
Y-Aib-EGTFTSDYSI-αMeL-LDSK((2-[2-(2-Amino-ethoxy)-ethoxy]-acetyl)2-(γGlu)-CO—(CH2)18—CO2H)AQ-Aib-AFIEYLIEGG-NH2 (YXEGTFTSDYSIXLDSKAQXAFIEYLIEGG; Aib, αMeL; K lipidated C20 diacid-γGlu-AEEA2; C-terminal amide; (2)..(2) Xaa at position 2 is Aib; (13)..(13) Xaa at position 13 is alpha-methyl-Leu; MOD_RES (17)..(17) Lys at position 17 is chemically modified by conjugation of the epsilon-amino group of the Lys side chain with (2-[2-(2-amino-ethoxy)-ethoxy]-acetyl)2-(gamma-Glu)-CO-(CH2)18- CO2H; (20)..(20) Xaa at position 20 is Aib; MOD_RES (30)..(30) Gly at position 30 is amidated) [Peptide 64] | 3.66
Y-Aib-EGTFTSDYSI-αMeL-LDSK((2-[2-(2-Amino-ethoxy)-ethoxy]-acetyl)2-(γGlu)-CO—(CH2)18—CO2H)AQ-Aib-AFIEYLIEGGPSSGAPPPS-NH2 (YXEGTFTSDYSIXLDSKAQXAFIEYLIEGGPSSGAPPPS; Aib, αMeL, lipidated Lys, C-terminal amide; (2)..(2) Xaa at position 2 is Aib; (13)..(13) Xaa at position 13 is alpha-methyl-Leu; MOD_RES (17)..(17) Lys at position 17 is chemically modified by conjugation of the epsilon-amino group of the Lys side chain with (2-[2-(2-amino-ethoxy)-ethoxy]-acetyl)2-(gamma-Glu)-CO-(CH2)18- CO2H; (20)..(20) Xaa at position 20 is Aib; MOD_RES (39)..(39) Ser at position 39 is amidated) [Peptide 52] | 2.72
Y-Aib-EGTFTSDYSI-αMeL-LDTK((2-[2-(2-Amino-ethoxy)-ethoxy]-acetyl)2-(γGlu)-CO—(CH2)18—CO2H)AQ-Aib-AFIEYLIEGG-NH2 (YXEGTFTSDYSIXLDTKAQXAFIEYLIEGG; Aib, αMeL; K lipidated C20 diacid-γGlu-AEEA2; C-terminal amide; (2)..(2) Xaa at position 2 is Aib; (13)..(13) Xaa at position 13 is alpha-methyl-Leu; MOD_RES (17)..(17) Lys at position 17 is chemically modified by conjugation of the epsilon-amino group of the Lys side chain with (2-[2-(2-amino-ethoxy)-ethoxy]-acetyl)2-(gamma-Glu)-CO-(CH2)18- CO2H; (20)..(20) Xaa at position 20 is Aib; MOD_RES (30)..(30) Gly at position 30 is amidated) [Peptide 65] | 4.46
Y-Aib-EGTFTSDYSIK((2-[2-(2-Amino-ethoxy)-ethoxy]-acetyl)2-(γGlu)-CO—(CH2)18—CO2H)LDKIAQ-Aib-AFIEYLIEGGPSSGAPPPS-NH2 (Y[Aib]EGTFTSDYSIK([AEEA-AEEA-γGlu-C20 diacid])LDKIAQ[Aib]AFIEYLIEGGPSSGAPPPS-NH2; N-terminus assumed; SMILES CC[C@H](C)[C@H](NC(=O)[C@H](CCCCN)NC(=O)[C@H](CC(=O)O)NC(=O)[C@H](CC(C)C)NC(=O)[C@H](CCCCNC(=O)COCCOCCNC(=O)COCCOCCNC(=O)CC[C@H](NC(=O)CCCCCCCCCCCCCCCCCCC(=O)O)C(=O)O)NC(=O)[C@@H](NC(=O)[C@H](CO)NC(=O)[C@H](Cc1ccc(O)cc1)NC(=O)[C@H](CC(=O)O)NC(=O)[C@H](CO)NC(=O)[C@@H](NC(=O)[C@H](Cc1ccccc1)NC(=O)[C@@H](NC(=O)CNC(=O)[C@H](CCC(=O)O)NC(=O)C(C)(C)NC(=O)[C@@H](N)Cc1ccc(O)cc1)[C@@H](C)O)[C@@H](C)O)[C@@H](C)CC)C(=O)N[C@@H](C)C(=O)N[C@@H](CCC(N)=O)C(=O)NC(C)(C)C(=O)N[C@@H](C)C(=O)N[C@@H](Cc1ccccc1)C(=O)N[C@H](C(=O)N[C@@H](CCC(=O)O)C(=O)N[C@@H](Cc1ccc(O)cc1)C(=O)N[C@@H](CC(C)C)C(=O)N[C@H](C(=O)N[C@@H](CCC(=O)O)C(=O)NCC(=O)NCC(=O)N1CCC[C@H]1C(=O)N[C@@H](CO)C(=O)N[C@@H](CO)C(=O)NCC(=O)N[C@@H](C)C(=O)N1CCC[C@H]1C(=O)N1CCC[C@H]1C(=O)N1CCC[C@H]1C(=O)N[C@@H](CO)C(N)=O)[C@@H](C)CC)[C@@H](C)CC) [Peptide 26] | 2.46
Y-Aib-EGTFTSDYSILLDK((2-[2-(2-Amino-ethoxy)-ethoxy]-acetyl)2-(γGlu)-CO—(CH2)18—CO2H)IAQ-Aib-AFIEYLIEGGPSSGAPPPS-NH2 (Y[Aib]EGTFTSDYSILLDK([AEEA-AEEA-γGlu-C20 diacid])IAQ[Aib]AFIEYLIEGGPSSGAPPPS-NH2; N-terminus assumed; SMILES CC[C@H](C)[C@H](NC(=O)[C@H](CCCCNC(=O)COCCOCCNC(=O)COCCOCCNC(=O)CC[C@H](NC(=O)CCCCCCCCCCCCCCCCCCC(=O)O)C(=O)O)NC(=O)[C@H](CC(=O)O)NC(=O)[C@H](CC(C)C)NC(=O)[C@H](CC(C)C)NC(=O)[C@@H](NC(=O)[C@H](CO)NC(=O)[C@H](Cc1ccc(O)cc1)NC(=O)[C@H](CC(=O)O)NC(=O)[C@H](CO)NC(=O)[C@@H](NC(=O)[C@H](Cc1ccccc1)NC(=O)[C@@H](NC(=O)CNC(=O)[C@H](CCC(=O)O)NC(=O)C(C)(C)NC(=O)[C@@H](N)Cc1ccc(O)cc1)[C@@H](C)O)[C@@H](C)O)[C@@H](C)CC)C(=O)N[C@@H](C)C(=O)N[C@@H](CCC(N)=O)C(=O)NC(C)(C)C(=O)N[C@@H](C)C(=O)N[C@@H](Cc1ccccc1)C(=O)N[C@H](C(=O)N[C@@H](CCC(=O)O)C(=O)N[C@@H](Cc1ccc(O)cc1)C(=O)N[C@@H](CC(C)C)C(=O)N[C@H](C(=O)N[C@@H](CCC(=O)O)C(=O)NCC(=O)NCC(=O)N1CCC[C@H]1C(=O)N[C@@H](CO)C(=O)N[C@@H](CO)C(=O)NCC(=O)N[C@@H](C)C(=O)N1CCC[C@H]1C(=O)N1CCC[C@H]1C(=O)N1CCC[C@H]1C(=O)N[C@@H](CO)C(N)=O)[C@@H](C)CC)[C@@H](C)CC) [Peptide 29] | 7.99
